Test [1] has as its system a variety of human tumor cell lines. Conditions: background statement; cited from earlier work.
In test [2] the target is human c-Met on MKN45 cells (human) (UniProt P08581). Nature of the test: cell-based or functional assay.
Test [3] concerns the target T1, human c-Met ECD his tag (Human c-Met ECD-His) recombinant protein (human, UniProt P08581 25-932).
T1 construct: extracellular domain; It was expressed in 293F cells; Natural c-Met is cleaved into alpha and beta subunits; also called human c-Met-His; not shown: C-terminal His tag
As to the kind of experiment: ELISA, plate coated with human c-Met-His at 2 ug/mL. For orientation: In an ELISA, binding on a coated surface is turned into a signal by an enzyme label.

Another test has as its target T2, human c-Met-His (Homo sapiens, UniProt P08581).
T2 construct: His tag (6xHis) (C); made in house; host or cells: 293F cells (Invitrogen, Cat # R790-07); vector pEE6.4; c-Met gene template origene RC217003
As to the kind of experiment: ELISA binding of c-Met antibody to c-Met antigen. Conditions: hybridoma clones, ELISA, OD450. How it is done:
This experiment uses enzyme linked immunosorbent assay to detect affinity of c-Met antibody (including supermatant of hybridonma or recombinant expressed monoclonal antibodies) to c-Met antigen in vitro.
Experimental procedures: Coating buffer (PBS; Hyclone, Cat No.: SH30256.01B) was used to dilute antigen (human c-Met-His, example 1) to 2 μg/mL, which was added to a 96-well microplate at 100 μL/well (Costar 9018, Cat No.:03113024) and incubated overnight at 4° C. […] The plate was read with plate reader at 450 nm.
Murine anti-human c-Met monoclonal cell lines were obtained by immunizing mice, fusion of spleen cells, and screening of hybridomas. […] After the first booster immunization, mice serum was collected during 7 to 10 days after each booster immunization, and the titer was detected by ELISA (Methods were described in Example 2).
After immunization, mice with a serum titer higher than 1:10^5 were selected for cell fusion. Mouse B-cells and myeloma cells (SP2/0, ATCC number:CRL-1581™) were prepared respectively in aseptic conditions and counted. […] The next day, positive clones were detected by ELISA (see Methods in Example 2).

human c-Met on MKN45 cells (human), sequence (P08581 25-1390): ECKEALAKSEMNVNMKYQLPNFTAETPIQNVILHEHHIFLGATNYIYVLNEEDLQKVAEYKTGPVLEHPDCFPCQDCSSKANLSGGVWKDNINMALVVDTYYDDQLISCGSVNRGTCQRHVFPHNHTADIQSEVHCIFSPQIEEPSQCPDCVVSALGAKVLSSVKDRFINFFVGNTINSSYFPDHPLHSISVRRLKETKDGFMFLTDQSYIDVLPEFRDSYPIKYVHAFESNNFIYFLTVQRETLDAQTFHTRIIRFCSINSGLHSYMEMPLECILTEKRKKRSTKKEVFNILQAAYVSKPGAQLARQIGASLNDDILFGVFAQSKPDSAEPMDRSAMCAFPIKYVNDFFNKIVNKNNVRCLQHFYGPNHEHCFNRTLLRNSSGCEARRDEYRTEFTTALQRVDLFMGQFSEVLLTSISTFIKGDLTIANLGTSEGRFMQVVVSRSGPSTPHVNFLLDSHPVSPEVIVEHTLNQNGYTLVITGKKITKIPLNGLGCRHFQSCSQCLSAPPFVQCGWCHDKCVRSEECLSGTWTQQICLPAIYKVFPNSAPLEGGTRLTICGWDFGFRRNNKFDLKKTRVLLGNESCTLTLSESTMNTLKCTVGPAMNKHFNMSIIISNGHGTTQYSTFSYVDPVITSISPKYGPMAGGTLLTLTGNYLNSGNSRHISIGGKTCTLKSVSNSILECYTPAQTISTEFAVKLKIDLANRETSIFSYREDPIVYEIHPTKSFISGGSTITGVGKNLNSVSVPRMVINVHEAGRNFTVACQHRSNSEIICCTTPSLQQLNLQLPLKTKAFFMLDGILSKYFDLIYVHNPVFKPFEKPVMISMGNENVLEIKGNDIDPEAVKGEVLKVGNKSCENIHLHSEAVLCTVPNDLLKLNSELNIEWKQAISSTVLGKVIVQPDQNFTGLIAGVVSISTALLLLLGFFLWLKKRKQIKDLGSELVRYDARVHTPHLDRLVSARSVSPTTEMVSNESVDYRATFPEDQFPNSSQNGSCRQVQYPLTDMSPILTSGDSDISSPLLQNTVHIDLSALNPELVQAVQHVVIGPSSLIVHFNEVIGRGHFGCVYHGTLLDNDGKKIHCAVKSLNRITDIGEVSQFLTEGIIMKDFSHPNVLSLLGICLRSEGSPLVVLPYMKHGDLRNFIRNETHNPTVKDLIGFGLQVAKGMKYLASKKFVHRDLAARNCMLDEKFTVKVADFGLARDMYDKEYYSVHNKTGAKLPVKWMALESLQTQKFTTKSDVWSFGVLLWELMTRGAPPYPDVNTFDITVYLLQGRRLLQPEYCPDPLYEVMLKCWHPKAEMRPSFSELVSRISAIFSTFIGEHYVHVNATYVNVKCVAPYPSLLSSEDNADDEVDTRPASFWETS
T1 sequence (P08581 25-932): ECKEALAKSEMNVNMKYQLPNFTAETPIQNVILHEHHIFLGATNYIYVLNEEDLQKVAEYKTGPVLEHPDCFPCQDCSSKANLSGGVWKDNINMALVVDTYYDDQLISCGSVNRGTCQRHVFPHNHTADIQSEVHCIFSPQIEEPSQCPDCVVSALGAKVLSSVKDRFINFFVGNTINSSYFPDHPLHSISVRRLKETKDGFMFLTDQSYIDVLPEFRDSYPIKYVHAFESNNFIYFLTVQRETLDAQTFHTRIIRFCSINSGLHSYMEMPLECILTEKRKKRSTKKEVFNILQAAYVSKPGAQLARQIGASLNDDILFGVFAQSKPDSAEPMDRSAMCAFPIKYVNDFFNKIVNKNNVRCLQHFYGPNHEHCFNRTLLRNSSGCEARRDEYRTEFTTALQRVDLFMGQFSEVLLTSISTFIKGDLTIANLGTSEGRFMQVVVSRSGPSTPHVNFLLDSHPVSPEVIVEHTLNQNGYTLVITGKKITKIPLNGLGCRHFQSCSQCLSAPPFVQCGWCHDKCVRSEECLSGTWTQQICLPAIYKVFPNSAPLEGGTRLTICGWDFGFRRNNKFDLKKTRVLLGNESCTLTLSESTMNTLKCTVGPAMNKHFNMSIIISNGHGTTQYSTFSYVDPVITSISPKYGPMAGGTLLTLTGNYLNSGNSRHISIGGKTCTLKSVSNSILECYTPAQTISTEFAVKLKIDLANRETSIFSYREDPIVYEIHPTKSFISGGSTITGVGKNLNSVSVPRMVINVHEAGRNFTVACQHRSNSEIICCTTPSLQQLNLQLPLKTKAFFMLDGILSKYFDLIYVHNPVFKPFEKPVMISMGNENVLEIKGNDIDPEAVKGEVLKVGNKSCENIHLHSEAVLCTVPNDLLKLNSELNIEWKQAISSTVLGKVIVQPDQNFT
T2 sequence (P08581 with tags, fused parts or gaps limits assumed): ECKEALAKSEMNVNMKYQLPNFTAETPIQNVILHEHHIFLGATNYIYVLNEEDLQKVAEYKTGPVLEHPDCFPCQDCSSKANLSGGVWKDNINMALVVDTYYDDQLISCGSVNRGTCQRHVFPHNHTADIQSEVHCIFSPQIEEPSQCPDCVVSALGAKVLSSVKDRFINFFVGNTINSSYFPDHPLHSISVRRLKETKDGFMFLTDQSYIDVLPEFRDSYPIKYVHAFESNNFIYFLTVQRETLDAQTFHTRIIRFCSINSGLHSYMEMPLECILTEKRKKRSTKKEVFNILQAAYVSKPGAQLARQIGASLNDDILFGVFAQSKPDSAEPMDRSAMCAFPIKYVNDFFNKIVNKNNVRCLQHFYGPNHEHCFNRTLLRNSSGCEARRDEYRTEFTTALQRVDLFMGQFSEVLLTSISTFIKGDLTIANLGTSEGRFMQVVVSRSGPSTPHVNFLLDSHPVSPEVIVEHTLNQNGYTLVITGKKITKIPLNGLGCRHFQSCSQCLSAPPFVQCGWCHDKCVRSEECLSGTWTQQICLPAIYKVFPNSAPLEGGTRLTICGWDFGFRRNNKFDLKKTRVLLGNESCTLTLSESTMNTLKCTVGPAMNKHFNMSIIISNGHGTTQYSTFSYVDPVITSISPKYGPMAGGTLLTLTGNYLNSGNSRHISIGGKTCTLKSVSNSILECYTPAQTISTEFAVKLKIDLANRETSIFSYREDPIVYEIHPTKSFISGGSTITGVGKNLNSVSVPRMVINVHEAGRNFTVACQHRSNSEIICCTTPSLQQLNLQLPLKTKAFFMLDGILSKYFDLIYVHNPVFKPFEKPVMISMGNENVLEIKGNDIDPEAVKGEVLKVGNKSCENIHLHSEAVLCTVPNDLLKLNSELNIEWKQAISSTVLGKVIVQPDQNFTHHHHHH

In the case of `CC[C@H](C)C([C@@H](CC(=O)N1CCC[C@H]1[C@H](OC)[C@@H](C)C(=O)N[C@H](C)[C@@H](O)c1ccccc1)OC)N(C)C(=O)[C@@H](NC(=O)[C@@H](NC)C(C)C)C(C)C` (some centres unmarked) [MMAE, Monomethyl auristatin E], the “inhibitory activities against a variety of human tumor cell lines” value in test [1] is “less than one nanomolar”.

As to hIgG (control) (antibody), in test [2], the endocytosis % (0 h) came to 0%, the endocytosis % (0.5 h) was -0.9%, the endocytosis % (1 h) was -4.4% and the endocytosis % (2 h) was -4.9%. This molecule yielded an endocytosis % (4 h) in test [2] of 3.6%.

B1: Ab-11 humanized antibody (antibody, human IgG2, kappa, V domains shown)
VH: QVQLVESGGGVVQPGRSLRLSCAASGFTLPNYGVHWVRQAPGKGLEWLAVIWSGGSTNYAAAFVSRLTISKDNSKNTVYLQMNSLRAEDTAVYYCARNHDNPYNYAMDYWGQGTTVTVSS
VL: DIVLTQSPDSLAVSLGERATINCRANKSVSTSTYNYLHWYQQKPGQPPKLLIYLASNLASGVPDRFSGSGSGTDFTLTISSLQAEDVAVYYCQHSRDLPPTFGQGTKLEIKR
notes: Full-length humanized antibody
Turning to B1, in test [3], the half-maximal effective concentration (EC50) – broadly, the midpoint of the concentration-response curve – was determined as 0.2 nM.

B2: Ab-5 (antibody, V domains shown)
VH: QVQLKQSGPGLVQPSQSLSITCTVSGFSLPNYGVHWVRQSPGKGLEWLGVIWSGGSTNYAAAFVSRLRISKDNSKSQVFFEMNSLQADDTAVYYCARNHDNPYNYAMDYWGQGTTVTVSS
VL: DIVLTQSPGSLAVYLGQRATISCRANKSVSTSTYNYLHWYQQKPGQPPKLLIYLASNLASGVPARFSGSGSGTDFTLNIHPLEEEDAATYYCQHSRDLPPTFGAGTKLELKR
As for B2, in the test with human c-Met-His, the “Detection Results (OD450)” value is given as 1.64.

Values taken from US20200054764A1, “MEDICAL USE OF ANTI-C MET ANTIBODY-CYTOTOXIC DRUG CONJUGATE” (priority 2016, published 2020).
